Test results from patent US20220185900A1 (Regeneron, published 2022).

T1: Macaca fascicularis (mf) RET.mmh (Macaca fascicularis)
T1 construct: also called monkey RET
T1 chain: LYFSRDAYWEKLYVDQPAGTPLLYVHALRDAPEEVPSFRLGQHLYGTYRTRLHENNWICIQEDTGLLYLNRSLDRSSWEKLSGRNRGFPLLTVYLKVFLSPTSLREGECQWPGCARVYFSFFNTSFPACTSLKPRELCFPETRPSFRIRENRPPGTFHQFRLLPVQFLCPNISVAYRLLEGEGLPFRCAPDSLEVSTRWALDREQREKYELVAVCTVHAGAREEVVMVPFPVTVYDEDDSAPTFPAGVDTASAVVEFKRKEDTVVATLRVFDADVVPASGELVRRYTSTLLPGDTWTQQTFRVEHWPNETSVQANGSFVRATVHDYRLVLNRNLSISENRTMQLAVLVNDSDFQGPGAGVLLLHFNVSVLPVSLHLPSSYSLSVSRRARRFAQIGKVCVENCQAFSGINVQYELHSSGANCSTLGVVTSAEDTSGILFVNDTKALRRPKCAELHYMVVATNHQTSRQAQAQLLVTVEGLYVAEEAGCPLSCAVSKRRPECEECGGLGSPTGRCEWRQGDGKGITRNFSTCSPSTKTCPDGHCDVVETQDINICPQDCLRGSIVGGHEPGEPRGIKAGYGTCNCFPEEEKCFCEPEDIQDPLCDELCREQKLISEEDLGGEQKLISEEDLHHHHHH


Key:
hRET.mmh [1] = biological target: T2, hRET.mmh (human, UniProt P07949 29-635, biotinylated in the ELISA of Example 4 (biot-hRET.mmh); not in the SPR of Example 3); experiment: competition sandwich ELISA: 1 nM biot-hRET.mmh + antibody, plate-coated GDNF/GFRα1 co-complex
T2 construct: also called biot-hRET.mmh; soluble monomeric human RET
Experimental: The ability of anti-RET antibodies to block the binding of human RET to pre-complexed plate bound GDNF:GFRα1 was assessed using a competition sandwich ELISA.
Antibody-RET mixtures were incubated for 1 hour at RT and then transferred to microtiter plates previously coated with the hGDNF/hGFRα1 co-complex. Binding was allowed to proceed for 1 hr at RT followed by extensive washing. […] Plates were read at 450 nm and data analysis used a sigmoidal dose-response model within Prism™ software.
The absorbance values of the wells containing the highest concentration for each antibody were used to determine the blocking percent at maximum concentration antibody tested.

[2] = biological target: T1, Macaca fascicularis (mf) RET.mmh; experiment: SPR Biacore T200, mAb capture, 25 C
Experimental: (§1) Binding affinities and kinetic constants of human anti-RET antibodies were determined by surface plasmon resonance (Biacore T200) at […] (Tables 2-3). […] Binding equilibrium dissociation constants (KD) and dissociative half-lives (t_{1/2}) were calculated from the kinetic rate constants as: KD [M]=kd/kₐ; and t_{1/2}(min)=(ln2/(60*kd). Calculations were performed using BiacoreT200 evaluation software v1.0.

hRET.mFc [3] = biological target: T3, hRET.mFc (human); experiment: SPR Biacore T200, mAb capture, 25 C
T3 construct: also called dimeric human RET
Experimental: as §1

hRET.mmh [4] = biological target: T2, hRET.mmh; experiment: SPR Biacore T200, mAb capture, 25 C
Experimental: as §1

[5] = biological target: T1, Macaca fascicularis (mf) RET.mmh; experiment: SPR Biacore T200, mAb capture, 37 C
Experimental: as §1

hRET.mFc [6] = biological target: T3, hRET.mFc; experiment: SPR Biacore T200, mAb capture, 37 C
Experimental: as §1

hRET.mmh [7] = biological target: T2, hRET.mmh; experiment: SPR Biacore T200, mAb capture, 37 C
Experimental: as §1

Row | % Max Blocking (hRET.mmh [1]) | Kd [2] | koff [2] | kon [2] | t½ [2] | Kd (hRET.mFc [3]) | koff (hRET.mFc [3]) | kon (hRET.mFc [3]) | t½ (hRET.mFc [3]) | Kd (hRET.mmh [4]) | koff (hRET.mmh [4]) | kon (hRET.mmh [4]) | t½ (hRET.mmh [4]) | Kd [5] | koff [5] | kon [5] | t½ [5] | Kd (hRET.mFc [6]) | koff (hRET.mFc [6]) | kon (hRET.mFc [6]) | Binder | other results
1 | 97% | 1.46 nM | 0.000733 s⁻¹ | 501000 M⁻¹ s⁻¹ | 16 min | 0.49 nM | 0.00022 s⁻¹ | 400000 M⁻¹ s⁻¹ | 53 min | 0.733 nM | 0.00037 s⁻¹ | 505000 M⁻¹ s⁻¹ | 31 min | 6.31 nM | 0.00428 s⁻¹ | 678000 M⁻¹ s⁻¹ | 3 min | 2.4 nM | 0.00088 s⁻¹ | 366000 M⁻¹ s⁻¹ | H4H8062P (antibody, human IgG4, V domains shown, human IgG4 Fc (H4H prefix)) VH: EVQLVESGGGLVQPGGSLRLSCSVSGFIFKNYAMRWVRQAPGKGLEWVSGISGSGGITYYADSVRGRVTISRDNSKNTLDLQMTNLRAEDTAVYYCAKAEYSSSGAYFDYWGQGTLVTVSS VL: DIQMTQSPSSLSASVGDRVTITCRASQSIHNYLNWYLQRPGKAPKLLVYAASSLQSGVPSRFSGRGSGTDFTLTISSLQPEDFATYYCQQSYSAPYSFGQGTKLEIK | IC50 (hRET.mmh [1]): < 0.25 nM; t½ (hRET.mFc [6]): 13 min; Kd (hRET.mmh [7]): 2.65 nM; koff (hRET.mmh [7]): 0.00181 s⁻¹; kon (hRET.mmh [7]): 682000 M⁻¹ s⁻¹; t½ (hRET.mmh [7]): 6 min
2 | 73% | 2.69 nM | 0.000583 s⁻¹ | 216000 M⁻¹ s⁻¹ | 20 min | 1.47 nM | 0.000272 s⁻¹ | 185000 M⁻¹ s⁻¹ | 42 min | 2.56 nM | 0.000539 s⁻¹ | 211000 M⁻¹ s⁻¹ | 21 min | 10.3 nM | 0.00313 s⁻¹ | 303000 M⁻¹ s⁻¹ | 4 min | 5.62 nM | 0.00128 s⁻¹ | 227000 M⁻¹ s⁻¹ | H4H8056P (antibody, human IgG4, V domains shown, human IgG4 Fc (H4H prefix)) VH: QVQLVESGGGVVQPGRSLRLSCAASGFTFRNYGMHWVRQAPGKGLEWVAVKRYDGSDEYFVDSVKGRFTISRDNSKNTLFLQMNSLRVDDTAVYYCARETPITGTTLDYWGQGTLVTVSS VL: DIQMTQSPSSLSASVGDRVTITCRTSQSITNYLNWYQQKPGKAPKLLIYAASRSQSGVPSRFSGSGSGTDFTLTISSLQPEDFATYYCQQSYSTPLTFGGGTKVEIK | t½ (hRET.mFc [6]): 9 min; Kd (hRET.mmh [7]): 8.88 nM; koff (hRET.mmh [7]): 0.00289 s⁻¹; kon (hRET.mmh [7]): 326000 M⁻¹ s⁻¹; t½ (hRET.mmh [7]): 4 min
3 | 93% | 2.35 nM | 0.00054 s⁻¹ | 230000 M⁻¹ s⁻¹ | 21 min | 1.1 nM | 0.000259 s⁻¹ | 236000 M⁻¹ s⁻¹ | 45 min | 2.09 nM | 0.000518 s⁻¹ | 248000 M⁻¹ s⁻¹ | 22 min | 4.16 nM | 0.00226 s⁻¹ | 543000 M⁻¹ s⁻¹ | 5 min | 2.18 nM | 0.00121 s⁻¹ | 552000 M⁻¹ s⁻¹ | H4H8058P (antibody, human IgG4, V domains shown, human IgG4 Fc (H4H prefix)) VH: QVQLVESGGGVGQPGRSLRLSCVASGFTFRNYGMHWVRQAPGKGLDWVAIIGYDGSKEYNVDSVKGRFTISRDNSKNTLYLQMNSLGAEDTAIYYCARESPITGTTFDYWGQGTLVTVSS VL: DIQMTQSPPSLSASVGDRVTITCRASQSIGNYLNWYQQKPGKAPKILIYAASRLQSGVPSRFSGSGSGTDFTLTISSLQPEDFATYYCQQSYSTPLTFGGGTKVEIK | IC50 (hRET.mmh [1]): 0.25 nM; t½ (hRET.mFc [6]): 10 min; Kd (hRET.mmh [7]): 4.18 nM; koff (hRET.mmh [7]): 0.00221 s⁻¹; kon (hRET.mmh [7]): 528000 M⁻¹ s⁻¹; t½ (hRET.mmh [7]): 5 min
4 | 95% | 0.523 nM | 0.000393 s⁻¹ | 751000 M⁻¹ s⁻¹ | 29 min | 0.179 nM | 0.000149 s⁻¹ | 827000 M⁻¹ s⁻¹ | 78 min | 0.409 nM | 0.000311 s⁻¹ | 761000 M⁻¹ s⁻¹ | 37 min | 1.88 nM | 0.00209 s⁻¹ | 1.12e+06 M⁻¹ s⁻¹ | 6 min | 0.558 nM | 0.000592 s⁻¹ | 1.06e+06 M⁻¹ s⁻¹ | H4H8060P (antibody, human IgG4, V domains shown, human IgG4 Fc (H4H prefix)) VH: QVTLKESGPVLVKPTETLTLTCTVSGFSLSSARMGVSWIRQPPGKALEWLAHIFSTDEKSYSTSLKSRLSISKDTSLSQVVLIMTNMDPVDTATYYCARRTTMAPYYYYYGMDVWGHGTTVTVSS VL: AIQMTQSPASLSASVGDRVTITCRASQGIRNDLGWYQQKPGKAPKLLISAASSLQSGVPSRFSGSGSGTDFTLTISSLQPEDFATYYCLQDYKYPWTFGQGTKVEIK | IC50 (hRET.mmh [1]): < 0.25 nM; t½ (hRET.mFc [6]): 19 min; Kd (hRET.mmh [7]): 1.41 nM; koff (hRET.mmh [7]): 0.00157 s⁻¹; kon (hRET.mmh [7]): 1.11e+06 M⁻¹ s⁻¹; t½ (hRET.mmh [7]): 7 min
5 | 95% | 1.54 nM | 0.000327 s⁻¹ | 212000 M⁻¹ s⁻¹ | 35 min | 0.686 nM | 0.000171 s⁻¹ | 250000 M⁻¹ s⁻¹ | 68 min | 1.51 nM | 0.000338 s⁻¹ | 224000 M⁻¹ s⁻¹ | 34 min | 4.84 nM | 0.0014 s⁻¹ | 289000 M⁻¹ s⁻¹ | 8 min | 2.15 nM | 0.000675 s⁻¹ | 314000 M⁻¹ s⁻¹ | H4H8076P (antibody, human IgG4, V domains shown, human IgG4 Fc (H4H prefix)) VH: QVQLQQSGPGLVKPSQTLSLTCAISGDSVSSNSVAWNWIRQSPSRGLEWLGRTYYRSNWYNTYAVSVKSRITIDPDTSKNQFSLQLNSVTPEDTALYYCARGHRYSGSYFDYWGQGTLVTVSS VL: DIQMTQSPSSLSASVGDRVTITCRASQNINSYFNWYQQKPGKAPKLLIYAASSLQSGVPSRFSGGGSGTDFTLTISSLQPEDFATYYCQQTYTIPWTFGQGTKVEIK | IC50 (hRET.mmh [1]): < 0.25 nM; t½ (hRET.mFc [6]): 17 min; Kd (hRET.mmh [7]): 4.31 nM; koff (hRET.mmh [7]): 0.00136 s⁻¹; kon (hRET.mmh [7]): 315000 M⁻¹ s⁻¹; t½ (hRET.mmh [7]): 9 min
6 | 72% | 2.32 nM | 0.000272 s⁻¹ | 117000 M⁻¹ s⁻¹ | 43 min | 0.89 nM | 0.000179 s⁻¹ | 200000 M⁻¹ s⁻¹ | 65 min | 1.41 nM | 0.000219 s⁻¹ | 156000 M⁻¹ s⁻¹ | 53 min | 7.04 nM | 0.00114 s⁻¹ | 161000 M⁻¹ s⁻¹ | 10 min | 1.04 nM | 0.000312 s⁻¹ | 300000 M⁻¹ s⁻¹ | H4H8071P (antibody, human IgG4, V domains shown, human IgG4 Fc (H4H prefix)) VH: EVQLVESGGGLVQPGGSLRLSCAASGFTFTTYFMSWVRQAPGKGLEWVSGISGSGTSTFYVDSMKGRFTISRDNSKNTLYLQMNSLRVEDTAVYFCAKENTYGHFDFWGQGTLVTVSS VL: DIQLTQSPSFLSASVGDRVTITCWASQDISSHLAWYQQKPGKAPKVLIYDASTLQSGVPSRISGSGSGTEFTLTISSLQPEDFAAYYCQQLDGYPYTFGQGTKLEIK | IC50 (hRET.mmh [1]): 0.36 nM; t½ (hRET.mFc [6]): 37 min; Kd (hRET.mmh [7]): 3.79 nM; koff (hRET.mmh [7]): 0.000896 s⁻¹; kon (hRET.mmh [7]): 236000 M⁻¹ s⁻¹; t½ (hRET.mmh [7]): 13 min
7 | 92% | 0.424 nM | 0.000272 s⁻¹ | 641000 M⁻¹ s⁻¹ | 42 min | 0.087 nM | 0.000107 s⁻¹ | 1.22e+06 M⁻¹ s⁻¹ | 108 min | 0.27 nM | 0.000242 s⁻¹ | 896000 M⁻¹ s⁻¹ | 48 min | 1.57 nM | 0.00131 s⁻¹ | 836000 M⁻¹ s⁻¹ | 9 min | 0.349 nM | 0.000441 s⁻¹ | 1.26e+06 M⁻¹ s⁻¹ | H4H8087P (antibody, human IgG4, V domains shown, human IgG4 Fc (H4H prefix)) VH: QVQLVESGGGVVQPGRSLRLSCAASGFSFSSYGMHWVRQAPGKGLEWVAVMWYDGSNEYYADSVKGRFIISRDNSKSTLYLEMNSLRAEDTALYYCAREDWDEGYYYGMDVWGQGTTVTVSS VL: DIQMTQSPSSLFASVGDRVTITCRASQDIRYDLGWYQQKPGKAPKRLIYASSILESGVPSRFSGSGSGTEYTLTISTLQSEDFAIYYCLQHNSFPWTFGQGTKVEIK | IC50 (hRET.mmh [1]): < 0.25 nM; t½ (hRET.mFc [6]): 26 min; Kd (hRET.mmh [7]): 0.968 nM; koff (hRET.mmh [7]): 0.00123 s⁻¹; kon (hRET.mmh [7]): 1.27e+06 M⁻¹ s⁻¹; t½ (hRET.mmh [7]): 9 min
